From paper PMC1513511

T1: H6MobC221 (pC221 MobC) (plasmid pC221, UniProt Q6V0Y1 1-132)
T1 sequence: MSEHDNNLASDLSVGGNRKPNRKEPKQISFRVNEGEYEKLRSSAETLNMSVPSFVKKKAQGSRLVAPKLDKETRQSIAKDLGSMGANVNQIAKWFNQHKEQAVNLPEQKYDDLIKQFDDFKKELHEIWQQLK

B1: 21P (mcb2 oligoduplex) (dsDNA)
DNA 1: AACGAAGTGGCTAGAATATA
DNA 2: TATATTCTAGCCACTTCGTT
B2: 21Pmut (randomized mcb2 oligoduplex) (dsDNA)
DNA 1: AACGAGAGTAGGTCAATATA
DNA 2: TATATTGACCTACTCTCGTT

Key:
H6MobC221 (pC221 MobC) [1] = molecular target: T1, H6MobC221 (pC221 MobC); assay: SPR
H6MobC221 (pC221 MobC) [2] = molecular target: T1, H6MobC221 (pC221 MobC); assay: SPR; remark: listed apart in the source

| Binder | Kd (H6MobC221 (pC221 MobC) [1]) [nM] | binding result (H6MobC221 (pC221 MobC) [2]) |
| --- | --- | --- |
| B1 | ~1800 | – |
| B2 | – | no binding |
